This series has as its system Escherichia coli TOP10. The series can be described thus: shrunken log2 fold change of peptide-encoding DNA abundance (4.5 h post-induction vs induction); higher = less antimicrobial activity (less host growth inhibition). The conditions noted are these: time post-induction: 4.5 h; library: site-saturation at positions 5, 18, 19, 20.
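Also: peptides expressed intracellularly from a pBAD plasmid library in pooled LB shake-flask culture, induced with 0.3% L-arabinose, DNA abundance read by NGS, three biological replicates, DESeq2 with apeglm shrinkage.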

Take RRIRGRPPRLPRPRPRPEGSPRP: the “shrunken log2 fold change” value came out at 1.28.
On to RRIRIRPPRLPRPRPRPGPDPRP, for which the “shrunken log2 fold change” value was -0.0181.
With RRIRHRPPRLPRPRPRPLARPRP the figure was 0.113.
Consider RRIRYRPPRLPRPRPRPMDYPRP, for which the “shrunken log2 fold change” value is -0.218.
Consider RRIRCRPPRLPRPRPRPMIRPRP, for which the “shrunken log2 fold change” value was -0.0688.
For RRIRGRPPRLPRPRPRPEFEPRP, the “shrunken log2 fold change” value is 0.612.
With RRIRHRPPRLPRPRPRPDCEPRP the figure was -0.0807; with RRIRIRPPRLPRPRPRPVIPPRP, -0.358; with RRIRLRPPRLPRPRPRPNSNPRP, -0.335.
Turning to RRIRKRPPRLPRPRPRPHYCPRP, the “shrunken log2 fold change” value was -0.00783.
On to RRIRTRPPRLPRPRPRPSVSPRP, for which the “shrunken log2 fold change” value was -0.386.
As to RRIRFRPPRLPRPRPRPYYSPRP, the “shrunken log2 fold change” value is -0.228.
In the case of RRIRFRPPRLPRPRPRPTFTPRP, the “shrunken log2 fold change” value was -0.157.
Take RRIRVRPPRLPRPRPRPFARPRP: the “shrunken log2 fold change” value turned out to be 0.206.
Take RRIRQRPPRLPRPRPRPDTYPRP: the “shrunken log2 fold change” value is -0.154.
As to RRIRARPPRLPRPRPRPTATPRP, the “shrunken log2 fold change” value is 1.2.
As for RRIRSRPPRLPRPRPRPFCQPRP, the “shrunken log2 fold change” value was -0.0847.
The figure for RRIRDRPPRLPRPRPRPAPMPRP is 0.445; for RRIRNRPPRLPRPRPRPQTHPRP it is -0.217.
With RRIRQRPPRLPRPRPRPACQPRP, the “shrunken log2 fold change” value amounted to 0.15.
Regarding RRIRYRPPRLPRPRPRPGDRPRP, the “shrunken log2 fold change” value stood at 0.196.
As to RRIRHRPPRLPRPRPRPRKCPRP, the “shrunken log2 fold change” value is -0.116.
The figure for RRIRARPPRLPRPRPRPGMQPRP is 0.094; for RRIRVRPPRLPRPRPRPWCFPRP it is -0.0951; for RRIRRRPPRLPRPRPRPAKEPRP it is 0.0389.
For the sequence RRIRCRPPRLPRPRPRPWCVPRP, the “shrunken log2 fold change” value is -0.0995.
Turning to RRIRGRPPRLPRPRPRPVAGPRP, the “shrunken log2 fold change” value came to 1.12.
Regarding RRIRYRPPRLPRPRPRPVAIPRP, the “shrunken log2 fold change” value is -0.702.
With RRIRDRPPRLPRPRPRPMIFPRP, the “shrunken log2 fold change” value was found to be 0.0749.
As to RRIRMRPPRLPRPRPRPFEAPRP, the “shrunken log2 fold change” value was 0.655.
Consider RRIRNRPPRLPRPRPRPSACPRP, for which the “shrunken log2 fold change” value is -0.0258.
Consider RRIRGRPPRLPRPRPRPVPDPRP, for which the “shrunken log2 fold change” value was 0.958.
In the case of RRIRSRPPRLPRPRPRPSYVPRP, the “shrunken log2 fold change” value was -0.735.
Take RRIRNRPPRLPRPRPRPPVMPRP: the “shrunken log2 fold change” value was 0.139.
For the sequence RRIRQRPPRLPRPRPRPAFNPRP, the “shrunken log2 fold change” value is 0.18.
Regarding RRIRLRPPRLPRPRPRPPANPRP, the “shrunken log2 fold change” value worked out at 0.592.
For RRIRHRPPRLPRPRPRPSNKPRP, the “shrunken log2 fold change” value was -0.802.
Take RRIRKRPPRLPRPRPRPRADPRP: the “shrunken log2 fold change” value was determined as 0.511.
RRIRWRPPRLPRPRPRPTCAPRP: the “shrunken log2 fold change” value worked out at 0.868.
For RRIRKRPPRLPRPRPRPMSGPRP, the “shrunken log2 fold change” value was -0.211.
With RRIRARPPRLPRPRPRPTAFPRP the figure was 0.815; with RRIRNRPPRLPRPRPRPHMVPRP, -0.13; with RRIRGRPPRLPRPRPRPPGLPRP, 0.786.
As to RRIRHRPPRLPRPRPRPRPDPRP, the “shrunken log2 fold change” value came out at 0.179.
As for RRIRPRPPRLPRPRPRPMYMPRP, the “shrunken log2 fold change” value is -0.0346.
On to RRIRQRPPRLPRPRPRPPSTPRP, for which the “shrunken log2 fold change” value was 0.179.
RRIRSRPPRLPRPRPRPNKNPRP: the “shrunken log2 fold change” value is -0.384.
For RRIRPRPPRLPRPRPRPNPPPRP, the “shrunken log2 fold change” value was found to be 0.188.
As for RRIRIRPPRLPRPRPRPVQGPRP, the “shrunken log2 fold change” value came out at 0.552.
With RRIRDRPPRLPRPRPRPTARPRP the figure was 0.546; with RRIRKRPPRLPRPRPRPNDKPRP, -0.0282.
On to RRIRKRPPRLPRPRPRPFGMPRP, for which the “shrunken log2 fold change” value is -0.00211.
For RRIRRRPPRLPRPRPRPKNTPRP, the “shrunken log2 fold change” value was -0.0507.
As to RRIRWRPPRLPRPRPRPTPKPRP, the “shrunken log2 fold change” value worked out at 0.627.
As for RRIRPRPPRLPRPRPRPLRNPRP, the “shrunken log2 fold change” value is 0.673.
RRIRERPPRLPRPRPRPRTGPRP: the “shrunken log2 fold change” value was found to be 0.0617.
Take RRIRIRPPRLPRPRPRPIICPRP: the “shrunken log2 fold change” value is -0.775.
For RRIRTRPPRLPRPRPRPAHAPRP, the “shrunken log2 fold change” value was 0.0759.
With RRIRVRPPRLPRPRPRPCAPPRP, the “shrunken log2 fold change” value was -0.22.
As to RRIRSRPPRLPRPRPRPGWFPRP, the “shrunken log2 fold change” value amounted to 0.44.
With RRIRGRPPRLPRPRPRPMFNPRP, the “shrunken log2 fold change” value is -0.192.
With RRIRKRPPRLPRPRPRPMPEPRP the figure was -0.0371; with RRIRFRPPRLPRPRPRPSQLPRP, -0.462.
RRIRYRPPRLPRPRPRPISPPRP: the “shrunken log2 fold change” value was found to be 0.0589.
The figure for RRIRARPPRLPRPRPRPLDMPRP is -0.00812.
With RRIRGRPPRLPRPRPRPRTLPRP, the “shrunken log2 fold change” value was found to be 0.477.
With RRIRKRPPRLPRPRPRPIMFPRP, the “shrunken log2 fold change” value is -0.21.
As for RRIRGRPPRLPRPRPRPRPQPRP, the “shrunken log2 fold change” value stood at 0.863.
With RRIRDRPPRLPRPRPRPQKSPRP the figure was -0.11; with RRIRTRPPRLPRPRPRPDDEPRP, 0.0101.
With RRIRTRPPRLPRPRPRPTYKPRP the figure was -0.651; with RRIRQRPPRLPRPRPRPDPMPRP, -0.0539.
With RRIRKRPPRLPRPRPRPRRRPRP, the “shrunken log2 fold change” value came out at 1.27.
Regarding RRIRTRPPRLPRPRPRPRLNPRP, the “shrunken log2 fold change” value was -0.251.
Consider RRIRCRPPRLPRPRPRPGTGPRP, for which the “shrunken log2 fold change” value was found to be 0.119.
The figure for RRIRQRPPRLPRPRPRPVAMPRP is 0.0794.
Consider RRIRVRPPRLPRPRPRPDYCPRP, for which the “shrunken log2 fold change” value was -0.207.
Regarding RRIRNRPPRLPRPRPRPPFWPRP, the “shrunken log2 fold change” value was determined as 0.196.
In the case of RRIRCRPPRLPRPRPRPACGPRP, the “shrunken log2 fold change” value was found to be 0.323.
Turning to RRIRRRPPRLPRPRPRPYHSPRP, the “shrunken log2 fold change” value was -0.017.
For RRIRWRPPRLPRPRPRPYEHPRP, the “shrunken log2 fold change” value was -0.12.
On to RRIRYRPPRLPRPRPRPLEPPRP, for which the “shrunken log2 fold change” value is -0.124.
Regarding RRIRKRPPRLPRPRPRPKFDPRP, the “shrunken log2 fold change” value was -0.146.
In the case of RRIRFRPPRLPRPRPRPFKHPRP, the “shrunken log2 fold change” value was -0.2.
With RRIRCRPPRLPRPRPRPWARPRP, the “shrunken log2 fold change” value is -0.188.
On to RRIRQRPPRLPRPRPRPWKFPRP, for which the “shrunken log2 fold change” value was 0.0543.
Turning to RRIRLRPPRLPRPRPRPYELPRP, the “shrunken log2 fold change” value is 0.00404.
As to RRIRLRPPRLPRPRPRPPAEPRP, the “shrunken log2 fold change” value was 0.404.
In the case of RRIRWRPPRLPRPRPRPRLNPRP, the “shrunken log2 fold change” value was 0.545.
In the case of RRIRCRPPRLPRPRPRPGFNPRP, the “shrunken log2 fold change” value is -0.391.
As for RRIRFRPPRLPRPRPRPAFFPRP, the “shrunken log2 fold change” value was determined as 0.0784.

(Values after the supplement of paper PMC9112550, “Optimization of the antimicrobial peptide Bac7 by deep mutational scanning” (BMC Biology, 2022).)
